This is an account of results in the nanobody polyreactivity screen of Harvey et al. (2022).

The nature of the series: yeast display, Sf9 membrane polyspecificity reagent, FACS + sequencing; frameworks hold sequencing errors. The gist of the method:
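Sorting gates, low and high (top ~1%), were placed on anti-HA fluorescence to track expression and on streptavidin fluorescence to track reagent binding. A clone's polyreactivity label is taken from the gate it came out of. The reagent was 10% biotinylated, detergent-solubilized Sf9 membrane, applied for 1 hour at 4 °C to galactose-induced yeast display cells.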
For “QVQLVESGGGLVQAGGSLRVSCAASGFIFLNNAMGWYRQAPGKERELVAAITWSGGSTYYADSVKGRFTISRDNAKNTVYLQMKSLKPEDTAVYYCAADGWLYYGVGYWGQGTQVTVSS”, the “polyreactivity (PSR sort gate)” value is “low polyreactivity”.

For “QVQLVETGGGLVQAGGSLRLSCAAYGRIFAIYAMGWYRQAPGKDRELVAAISRSGGSTSYADSVKGRFTISRDNAKNTVYLQMNSLKPEDTAVYYCARRITYYQLSRQRYDYWGQGTQVTVSS”, the “polyreactivity (PSR sort gate)” value was “high polyreactivity”.

“QVQLVESGGGLVQAGGSLRLSCAASGGIFWFYAMGWYRQAPGKERELVASIRSSDGGTYYADSVKGRFTISRDNAKNTVYLQMNSLKPEDTAVYYCAADQTYERHWVYYWGQGTQVTVSS”: the “polyreactivity (PSR sort gate)” value is “low polyreactivity”.

For “QVQLVESGGGLVQAGGSLRLSCAASGSISGLYAMGWYRQAPGKESELVAAISFSGGSTYYADSVKGRFTISRDNAKNTVYFQMNSLKPEDTAVYYCAADGQYGGVPNTSEWTFDYWGQGTQVTVSS”, the “polyreactivity (PSR sort gate)” value is “low polyreactivity”.

Take “QVQLVESGGGLVQAGGSLRLSCAASGSIFPYYAMGWYRQAPGKERELVAGISRRGGTTYYADSVKGRFTISRDNAKNTVYLQMNSLKPEDTAVYYCAARYGPYVDRYGYWGQGTQVTVSS”: the “polyreactivity (PSR sort gate)” value is recorded as “high polyreactivity”.

On to “QVQLVESGGGLVQAGGSLRLSCAASGRTFFVYTMGWYRQAPGKERELVAAITSDTSTTYADSVKGRFTISRDNAKNTVYLQMISLKPEDTAVYYCAAEGYVGYYDYDYWGQGTQVTVSS”, for which the “polyreactivity (PSR sort gate)” value is on record as “low polyreactivity”.

Consider “QVQLVESGGGLVQAGGSLRLICAASGSIFFTYVMGWYRQSPGKERELVAAISSDDNTNYADSVKGRFTSSRDNAKNTVYLQMHSLKPEDTAVYYCNADTTRYPYYDYGYYDYDYWGQGTQVTVSS”, for which the “polyreactivity (PSR sort gate)” value is given as “low polyreactivity”.

For “QVQLVESGGGLVQAGGSLRLSCAASGLTFTSYAMGWYRQAPGKERELVAAITAGGVSTYYADSEKGRFTISRDNAKNTVYLQMNSLKPEDTAVYYCAVDPPYSNPITINEDYWGQGTQVTVSS”, the “polyreactivity (PSR sort gate)” value was “low polyreactivity”.

On to “QVQLVESGGGLVQAGGSLRLSCAASGRIFLVNAMGWDRQAPGKERELVAAINFISGSTYYADSVKGRFTISRDNAKNTVYLQMNSLKPEDTAVYYCAAYSYWSYVQRYNLEYDYWGQGTQVTVSS”, for which the “polyreactivity (PSR sort gate)” value is “low polyreactivity”.

Regarding “QVQLVESGGGLVQAGGSLRLSCAASGFTFLAYAMGWYRQAPGKERELGAAISKSGGSTYYADSVKGRFTISRDNAKITVYLQMNSLKPEDTAVYYCNAGRRIKFYGSYDYWGQGTQVTVSS”, the “polyreactivity (PSR sort gate)” value is listed as “high polyreactivity”.

On to “QVHLVESVGGLFQAGGSLRLSCDASGRTFPINAMGWYRQAPGKERELVARISRTSGSTYYADSVKGRFTISRDNAKNTVYLQMNSLNPEDTAVYYCAAVRDKYFRARYGYWGQGTQVTVSS”, for which the “polyreactivity (PSR sort gate)” value is listed as “high polyreactivity”.

Regarding “QVQLVESGGGLVQAGGSLRLSCAASGSTIFENVMGWYRQAPGKEREFVAAINTSGGSTYYADSVKGRFTISRDNAKYTVYLQMNSLKPEDTAVYYCARDSYWEMDYWGQGTQVNVSS”, the “polyreactivity (PSR sort gate)” value is listed as “low polyreactivity”.

Consider “QVQRVESGGGLVQAGGSLRLSGAASGFTFHSYAMGWFRQPPGKERELVAAISTGGTRTYYADSVKGRFTISRDNAKNTVYLQMNSLKPEDTAVYYCAADLSRRVRIYSKYDSWGQGTQVTVSS”, for which the “polyreactivity (PSR sort gate)” value is “high polyreactivity”.

Turning to “QVQLVESGGGLVQAGGSLRLSCAASGPIFGFNAMGWYRQAPGKERELVARISSVGSTNYADSVKGRFTISRDNAKNTVYLQMNSLKPEDTAVYYCAAKRYYTQSSYYLALYDYWGQGTQVTVSS”, the “polyreactivity (PSR sort gate)” value is on record as “low polyreactivity”.

As to “QVQLVESGGGLVQAGGSLRLSCAASGFTFTYYVMGWYRQAPGKVRELVAAITRGGITDYADSVKGRFTISRDNAKNTVDLQMNSLKPEETAVYYCAAYYSYVLDYDYWGQGTQVTVSS”, the “polyreactivity (PSR sort gate)” value is recorded as “low polyreactivity”.

For “QVQLGESGGGLVQAGGSLRLSCAASGSIFRRYARGWYRQAPGKERELVAAISSSGGRTYYADSVKGRFTISRDNAKNTVYLQMNSLKPEETAVYYCAKDTYGFAANRPAGDGYWGQGTQVTVSS”, the “polyreactivity (PSR sort gate)” value is on record as “high polyreactivity”.

For the sequence “QVQLVESGGGLVLAGGSLRLSCAASGSTFGRYAMGWSRQAPGKERELVAAISRGTTTNYADSVKGRFTIARDNAKNTVYLQMNSLKPEETAVYYCAADQPSKRYYYWGQGTQVTVSS”, the “polyreactivity (PSR sort gate)” value is “low polyreactivity”.

As for “QVQLVESGGGLVQAGGSLRLSCAASGSIFNYYGMGWYRQAPGKERELVAAISVRGGRTYYADSVKGRFTISRDNAKNTVYLQMNSLKPEDTAVYYCAADGGYSLGYYDDELDYWGQGTQVTVSS”, the “polyreactivity (PSR sort gate)” value is recorded as “low polyreactivity”.

Turning to “EVHLVESGGCLVQPRGSLRLSCAASGYNYIRYRMGSYRQAPGKVREFVAAISGGSSTNYADSVKGRFTISRDNSKNTVYLQMNSLRAEDTAVYYCAAYKIDSDPRVYWGQGTQVTVSS”, the “polyreactivity (PSR sort gate)” value is listed as “low polyreactivity”.

As for “QVQLVESGGGLVQAGGSLRLSCAASGSTFVGYAMGWYRQAPGKVRELVADITSGGGITYYADSVKGRFTISRDNAKNTVYLQMNSLKPDDTAVYYCAPGRPRPHWWSLDYYYWGQGTQVTVSS”, the “polyreactivity (PSR sort gate)” value was “low polyreactivity”.

Take “QVQLVESGGGLVQAGGSLRLSCAASGSIFDVYAMGWYRQAPGKERELVATISNSAGSTYYADSVKGRFTISRDNAKKTVYLQMNSLKPEDTAVYYCAAVVLYFEEYDYWGQGTQVTVSS”: the “polyreactivity (PSR sort gate)” value is recorded as “low polyreactivity”.

For “QVQLVESGGGLVQAGGRLRLSSAASGFIFYYYAMGWYREAPGKERELVAAISTDGGSTFYADSVKGRFTISRDNAKNTVYLQMNSLKPEDTAVYYCNAPYYGWGYWPLEYIRYEYWGQGTQVTVSS”, the “polyreactivity (PSR sort gate)” value is listed as “low polyreactivity”.

For “QVQLVESGGGLVQAGGSLRLSCAASGSIFGTNAMGWYRPAPGKERELVAAINWSGGTTYYADSVKGRFTISRDNAKNTVYLQMNSLKPEDTAVYYCNADIEKSYNYWGQGTQVTVSS”, the “polyreactivity (PSR sort gate)” value is “low polyreactivity”.

“QVQLVESGGGVVHAGGSLRLSCAASGRIFRKYAMGWYRQAPGKESEFVAAITWSGGSTYYADSVKGRFTISRDNAKNTVYLQMNSLKPEDTAVYYCNAENGYSWDVFSDYWGQGTQVTVSS”: the “polyreactivity (PSR sort gate)” value is given as “low polyreactivity”.

Take “QVQLVESGGGLVQAGGSLRLSCAASGSTFREYTMGWYRQAPGKERELVAAITNSGGSTYYADSVKGRFTISRDNAKNTVYLQMNSLKPEDTAVYYCAAEVGIVDYDYWGQGTQVTVSS”: the “polyreactivity (PSR sort gate)” value is listed as “low polyreactivity”.

With “QVQLVESGGGLVQAGGSLRLSCAASGRIFSVNAMVWYRPAPGKERELVAAITGSGTITYYADSVKGRFTISRDNAKNTVYLQMSSLKPEDTAVYYCAARPVLRYYAGYYYWGQGTQVTVSS”, the “polyreactivity (PSR sort gate)” value was “high polyreactivity”.

Take “QVQLVESGGGLVQAGCSLRISCAASGSIYATKAIGWYRQAPGKERELVASISSGGCSTYYADSVKARFTISRDNAKNTVYLQLNSLKPEDTAVYYCARRIGHGSRPYWLETWRYPYDYWGQGTQVTVSS”: the “polyreactivity (PSR sort gate)” value is “low polyreactivity”.

Consider “QFQLVESGGGLVQAGGSLLLSCAASGSIFAPYDMGWYRQEPGKERELVAAISSSGGSTYYEDSVKGRFTISRDNSKNTVYLHMNSQKPEDTAVYYCDPEPYHGLYDYSGQGTQVTVSS”, for which the “polyreactivity (PSR sort gate)” value is listed as “low polyreactivity”.

Consider “QVQLVESGGGLVQAGGSLRLSCAASGSTFAYYAMGWYRQAPGKERELVAAIDDTGSTNYADSVKGRFTISRDNAKYTVFLQMNSLKPEYTAVYYCNAQPDGTYDYWGQGTQVTVSS”, for which the “polyreactivity (PSR sort gate)” value was “low polyreactivity”.

Consider “QVQLVESGGGLVQAGGSLRLSCAASGNIFRYNARGWYRKAPGKERELVAAISSVGTTNSADSVKGRFTSSRDNAKNTFYLQMNSLKPEDTAVYYCNAAWSSYLSGGYESWGQGTQVTVSS”, for which the “polyreactivity (PSR sort gate)” value was “low polyreactivity”.
